# Data taken from the supplement of paper PMC6755084.
# B1: F1*; the commonest letter at each place (parent)
# chain: GAGACCGCAACTGAAAAGTTGTTATCACTTGTCGTAAGACACTTTGGATGGGTTGAAGTTCTGCACGTAGAAGCAAAAGGC
# Variants of: B1
# Assay: fraction ligated after 30 min (ligated reads / total reads); higher = more ligase activity
# Conditions: with F1*sub RNA substrate (template-directed ligation), 42 °C
# Method in brief: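 Ligase ribozyme variants were made from oligo-pool templates by PCR amplification, T7 transcription and gel purification. After gel separation, ligated and unligated bands were reverse transcribed with barcoded primers and sequenced on a MiSeq, with core bases filtered at quality ≥20. The fraction ligated for each variant was the number of ligated reads divided by total reads.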
row,Variant,fraction ligated
1,GAGACCGCAACTGAAAAGTTGTAATCACTTGTCGTAAGTCACTTTGGATGGGTTGAAGTTCTGCACGTAGAAGCAAAAGGC [T23A A39T],0.794
2,GAGACCGCAACTGAAAAGTTGTTATCACTTGTCGTAAGACACTTTGGATGGGTTTACGTTCTGCACGTAGAAGCAAAAGGC [G55T A57C],0.717
3,GAGACCGCAACTGAAAAGTTGTTATCACTTGACTTAAGACACTTTGGATGGGTTGAAGTTCTGCACGTAGAAGCAAAAGGC [T32A G34T],0.823
4,GAGACCGCAACTGAAAAGTTGTTATCACTTGTCGTAAAACACTTTTGATGGGTTGAAGTTCTGCACGTAGAAGCAAAAGGC [G38A G46T],0.791
5,GAGACCGCAACTGAAAAGTTGTTATCACTTGTCGTAAGACACGTTGGCTGGGTTGAAGTTCTGCACGTAGAAGCAAAAGGC [T43G A48C],0.625
6,GAGACCGCAACTGAAAAGTTGTTATCACTTGTCGGAAGACACTTTGGATGGGTTGATGTTCTGCACGTAGAAGCAAAAGGC [T35G A57T],0.804
7,GAGACCGCAACTGAAAAGTTGTTATCACTTGTCGTAAGCCCCTTTGGATGGGTTGAAGTTCTGCACGTAGAAGCAAAAGGC [A39C A41C],0.792
8,GAGACCGCAACTGAAAAGTTGTTATCAATTGTCGTAGGACACTTTGGATGGGTTGAAGTTCTGCACGTAGAAGCAAAAGGC [C28A A37G],0.793
9,GAGACCGCAACTGAAAAGTTGTTATCACTGGTCGTAAGACACTTTGGATCGGTTGAAGTTCTGCACGTAGAAGCAAAAGGC [T30G G50C],0.342
10,GAGACCGCAACTGAAAAGTTGTTATCACGTGTCATAAGACACTTTGGATGGGTTGAAGTTCTGCACGTAGAAGCAAAAGGC [T29G G34A],0.824
11,GAGACCGCAACTGAAAAGTTGTGATCACTTGTCGTATGACACTTTGGATGGGTTGAAGTTCTGCACGTAGAAGCAAAAGGC [T23G A37T],0.821
12,GAGACCGCAACTGAAAAGTTGTTATCACTTGTCGTAAGACGCTTTGGAGGGGTTGAAGTTCTGCACGTAGAAGCAAAAGGC [A41G T49G],0.739
13,GAGACCGCAACTGAAAAGTTGTTATCACATGTCGTAAGACACTTTGGATGGGTTGTAGTTCTGCACGTAGAAGCAAAAGGC [T29A A56T],0.827
14,GAGACCGCAACTGAAAAGTTGTTATCACCTGTCGTAAGACACTCTGGATGGGTTGAAGTTCTGCACGTAGAAGCAAAAGGC [T29C T44C],0.822
15,GAGACCGCAACTGAAAAGTTGTAATCACTTGTCGTAGGACACTTTGGATGGGTTGAAGTTCTGCACGTAGAAGCAAAAGGC [T23A A37G],0.84
16,GAGACCGCAACTGAAAAGTTGTTATCACTTGTCGTACGACGCTTTGGATGGGTTGAAGTTCTGCACGTAGAAGCAAAAGGC [A37C A41G],0.79
17,GAGACCGCAACTGAAAAGTTGTTATCACTTGCCGTAAGACACTGTGGATGGGTTGAAGTTCTGCACGTAGAAGCAAAAGGC [T32C T44G],0.793
18,GAGACCGCAACTGAAAAGTTGTTATCACTTGTCTTAGGACACTTTGGATGGGTTGAAGTTCTGCACGTAGAAGCAAAAGGC [G34T A37G],0.829
19,GAGACCGCAACTGAAAAGTTGTTATCACTTGTCATAACACACTTTGGATGGGTTGAAGTTCTGCACGTAGAAGCAAAAGGC [G34A G38C],0.825
20,GAGACCGCAACTGAAAAGTTGTTATCGCTTGTCGTAAGACTCTTTGGATGGGTTGAAGTTCTGCACGTAGAAGCAAAAGGC [A27G A41T],0.837
21,GAGACCGCAACTGAAAAGTTGTTATCACTTGTCGTAAGACGCATTGGATGGGTTGAAGTTCTGCACGTAGAAGCAAAAGGC [A41G T43A],0.817
22,GAGACCGCAACTGAAAAGTTGTTATCACTAGTTGTAAGACACTTTGGATGGGTTGAAGTTCTGCACGTAGAAGCAAAAGGC [T30A C33T],0.849
23,GAGACCGCAACTGAAAAGTTGTTATCACTAGTCGTAAGACACTTTGGATGGGTTGAGGTTCTGCACGTAGAAGCAAAAGGC [T30A A57G],0.837

row,Variant,fraction ligated
1,GAGACCGCAACTGAAAAGTTGTTATCACTTGTCGTACGACATTTTGGATGGGTTGAAGTTCTGCACGTAGAAGCAAAAGGC [A37C C42T],0.857
2,GAGACCGCAACTGAAAAGTTGTTATCACTTGGCGTAAGACACTTTGGATGGGTTGATGTTCTGCACGTAGAAGCAAAAGGC [T32G A57T],0.814
3,GAGACCGCAACTGAAAAGTTGTTTTCACTTGTCGTAAGACATTTTGGATGGGTTGAAGTTCTGCACGTAGAAGCAAAAGGC [A24T C42T],0.792
4,GAGACCGCAACTGAAAAGTTGTTATCACTTGTCGTAAAACACTTAGGATGGGTTGAAGTTCTGCACGTAGAAGCAAAAGGC [G38A T45A],0.773
5,GAGACCGCAACTGAAAAGTTGTTATCACTTGTCGTCAGACACTTTGTATGGGTTGAAGTTCTGCACGTAGAAGCAAAAGGC [A36C G47T],0.356
6,GAGACCGCAACTGAAAAGTTGTTATCACTTGTCGTAAGACACTCTGGATGGGTTGGAGTTCTGCACGTAGAAGCAAAAGGC [T44C A56G],0.793
7,GAGACCGCAACTGAAAAGTTGTTACCACTTGTCGTAAGACACTTTGGATGGGTTGGAGTTCTGCACGTAGAAGCAAAAGGC [T25C A56G],0.0517
8,GAGACCGCAACTGAAAAGTTGTTATCACTTGACGTACGACACTTTGGATGGGTTGAAGTTCTGCACGTAGAAGCAAAAGGC [T32A A37C],0.849
9,GAGACCGCAACTGAAAAGTTGTTATCACTTGACGTAGGACACTTTGGATGGGTTGAAGTTCTGCACGTAGAAGCAAAAGGC [T32A A37G],0.838
10,GAGACCGCAACTGAAAAGTTGTAATCACTTGTCCTAAGACACTTTGGATGGGTTGAAGTTCTGCACGTAGAAGCAAAAGGC [T23A G34C],0.813
11,GAGACCGCAACTGAAAAGTTGTTATCAATTGTCCTAAGACACTTTGGATGGGTTGAAGTTCTGCACGTAGAAGCAAAAGGC [C28A G34C],0.779
12,GAGACCGCAACTGAAAAGTTGTTAACACTTGTCGTAAGGCACTTTGGATGGGTTGAAGTTCTGCACGTAGAAGCAAAAGGC [T25A A39G],0.751
13,GAGACCGCAACTGAAAAGTTGTTATGACCTGTCGTAAGACACTTTGGATGGGTTGAAGTTCTGCACGTAGAAGCAAAAGGC [C26G T29C],0.749
14,GAGACCGCAACTGAAAAGTTGTTATCACTTGTCGTAAGACACATTGAATGGGTTGAAGTTCTGCACGTAGAAGCAAAAGGC [T43A G47A],0.804
15,GAGACCGCAACTGAAAAGTTGTTATCACTGGTCGTAATACACTTTGGATGGGTTGAAGTTCTGCACGTAGAAGCAAAAGGC [T30G G38T],0.816
16,GAGACCGCAACTGAAAAGTTGTTATCACTTGTCCTCAGACACTTTGGATGGGTTGAAGTTCTGCACGTAGAAGCAAAAGGC [G34C A36C],0.834
17,GAGACCGCAACTGAAAAGTTGTTATCACTTGTCGTAATACACTTTGGCTGGGTTGAAGTTCTGCACGTAGAAGCAAAAGGC [G38T A48C],0.757
18,GAGACCGCAACTGAAAAGTTGTTATCACTTGTCGTAATACACTTTGGTTGGGTTGAAGTTCTGCACGTAGAAGCAAAAGGC [G38T A48T],0.129
19,GAGACCGCAACTGAAAAGTTGTTATCACTTGTCGTAGGACACTTTGGATGGGTTTAAGTTCTGCACGTAGAAGCAAAAGGC [A37G G55T],0.834
20,GAGACCGCAACTGAAAAGTTGTAATCACTTGTCGTAAGACACTTTGGATGGGTTGTAGTTCTGCACGTAGAAGCAAAAGGC [T23A A56T],0.754
21,GAGACCGCAACTGAAAAGTTGTTATCAAGTGTCGTAAGACACTTTGGATGGGTTGAAGTTCTGCACGTAGAAGCAAAAGGC [C28A T29G],0.814
22,GAGACCGCAACTGAAAAGTTGTTATCACTTTTCGTAAGACACTTCGGATGGGTTGAAGTTCTGCACGTAGAAGCAAAAGGC [G31T T45C],0.116
23,GAGACCGCAACTGAAAAGTTGTTATCACTTGTCGTAAGACACTTAGGATGGGTTGAGGTTCTGCACGTAGAAGCAAAAGGC [T45A A57G],0.752

row,Variant,fraction ligated
1,GAGACCGCAACTGAAAAGTTGTTATCACTTGTAGTATGACACTTTGGATGGGTTGAAGTTCTGCACGTAGAAGCAAAAGGC [C33A A37T],0.849
2,GAGACCGCAACTGAAAAGTTGTTATCACTGGTCGTAAGACACTCTGGATGGGTTGAAGTTCTGCACGTAGAAGCAAAAGGC [T30G T44C],0.808
3,GAGACCGCAACTGAAAAGTTGTTATCACTCGTCGTAAAACACTTTGGATGGGTTGAAGTTCTGCACGTAGAAGCAAAAGGC [T30C G38A],0.797
4,GAGACCGCAACTGAAAAGTTGTTATCACTTGTCGAAAGACACTTTGGATGGGTTGACGTTCTGCACGTAGAAGCAAAAGGC [T35A A57C],0.82
5,GAGACCGCAACTGAAAAGTTGTTATCACTTGTCGTAAGACACTTAAGATGGGTTGAAGTTCTGCACGTAGAAGCAAAAGGC [T45A G46A],0.178
6,GAGACCGCAACTGAAAAGTTGTTATCACTTGTCGTTAGACACTTTGGTTGGGTTGAAGTTCTGCACGTAGAAGCAAAAGGC [A36T A48T],0.792
7,GAGACCGCAACTGAAAAGTTGTTGTCACTTGTCGTAAGACACTTTGGATTGGTTGAAGTTCTGCACGTAGAAGCAAAAGGC [A24G G50T],0.491
8,GAGACCGCAACTGAAAAGTTGTTATCACTTCTCGTAAGACTCTTTGGATGGGTTGAAGTTCTGCACGTAGAAGCAAAAGGC [G31C A41T],0.732
9,GAGACCGCAACTGAAAAGTTGTTATCACTTCTCGTAAGACACTTTGGAAGGGTTGAAGTTCTGCACGTAGAAGCAAAAGGC [G31C T49A],0.0574
10,GAGACCGCAACTGAAAAGTTGTTATCACTTGTCGTAAGACACTTTGGATGGGTTCATGTTCTGCACGTAGAAGCAAAAGGC [G55C A57T],0.632
11,GAGACCGCAACTGAAAAGTTGTTATCACTTGTGGTTAGACACTTTGGATGGGTTGAAGTTCTGCACGTAGAAGCAAAAGGC [C33G A36T],0.825
12,GAGACCGCAACTGAAAAGTTGTTATCACATGCCGTAAGACACTTTGGATGGGTTGAAGTTCTGCACGTAGAAGCAAAAGGC [T29A T32C],0.774
13,GAGACCGCAACTGAAAAGTTGTTAACACTTGTCGTAAGACTCTTTGGATGGGTTGAAGTTCTGCACGTAGAAGCAAAAGGC [T25A A41T],0.587
14,GAGACCGCAACTGAAAAGTTGTTAACACTTGTCGTAAGACGCTTTGGATGGGTTGAAGTTCTGCACGTAGAAGCAAAAGGC [T25A A41G],0.419
15,GAGACCGCAACTGAAAAGTTGTTATCACTTGTCGTAAGACCCATTGGATGGGTTGAAGTTCTGCACGTAGAAGCAAAAGGC [A41C T43A],0.781
16,GAGACCGCAACTGAAAAGTTGTTATCACTTGTCGTAAGACACTTTGGATGAGTTGAAGTTCTGCACGTAGAAGCAAAAGGC [G51A],0.797
17,GAGACCGCAACTGAAAAGTTGTTATCACTTGTCTTAAAACACTTTGGATGGGTTGAAGTTCTGCACGTAGAAGCAAAAGGC [G34T G38A],0.836
18,GAGACCGCAACTGAAAAGTTGTTATCACCTGTCGTAAGACACTTTGGATGGGTTGAGGTTCTGCACGTAGAAGCAAAAGGC [T29C A57G],0.855
19,GAGACCGCAACTGAAAAGTTGTTATCACTCGTCGTGAGACACTTTGGATGGGTTGAAGTTCTGCACGTAGAAGCAAAAGGC [T30C A36G],0.823
20,GAGACCGCAACTGAAAAGTTGTTATCACTTGTCGTAACACACTTTGGACGGGTTGAAGTTCTGCACGTAGAAGCAAAAGGC [G38C T49C],0.0586
21,GAGACCGCAACTGAAAAGTTGTTATCACTAGTCGTAAGACACTGTGGATGGGTTGAAGTTCTGCACGTAGAAGCAAAAGGC [T30A T44G],0.825
22,GAGACCGCAACTGAAAAGTTGTTAGCACTTGTCGTAAGACACTTTGGATGGGTTGGAGTTCTGCACGTAGAAGCAAAAGGC [T25G A56G],0.0638
